Measurements published in patent US20230037815A1.

Target: cynomolgus CD19 (cynomolgus)
Experiment: Octet HTX (ForteBio), IgG on AHC sensor, 1:1 fit

Binder	Kd [nM]	koff [s⁻¹]
CNG-CD19-103 (antibody, V domains shown) VH: QVQLVQSGAEVKKPGASVKVSCKASGYTFTDYIMHWVRQAPGQGLEWMGYINPYNDGSKYTEKFQGRVTMTSDTSISTAYMELSRLRSDDTAVYYCARGTYYYGPQLFDYWGQGTTVTVSS VL: DIVMTQTPLSLSVTPGQPASISCKSSQSLETATGTTYLNWYLQKPGQSPQLLIYRVSRRFSGVPDRFSGSGSGTDFTLKISRVEAEDVGVYYCLQLLEDPYSFGQGTKLEIK	4.69	0.00109
CNG-CD19-104 (antibody, V domains shown) VH: QVQLVQSGAEVKKPGASVKVSCKASGYDFTDYIVHWVRQAPGQGLEWMGYINPYNDGSKYTEKFQGRVTMTSDTSISTAYMELSRLRSDDTAVYYCARGTYYYGPELFDYWGQGTTVTVSS VL: DIVMTQTPLSLSVTPGQPASISCKSGQSLETSTGTTYLNWYLQKPGQSPQLLIYRVSRRFSGVPDRFSGSGSGTDFTLKISRVEAEDVGVYYCLQLLEDPYTFGQGTKLEIK	5.83	0.00148
CNG-CD19-110 (antibody, V domains shown) VH: QVQLVQSGAEVKKPGASVKVSCKASGYTFTDYIMHWVRQAPGQGLEWMGYINPYNDGSKYTEKFQGRVTMTSDTSISTAYMELSRLRSDDTAVYYCARGTYYYGPQLFDYWGQGTTVTVSS VL: DIVMTQTPLSLSVTPGQPASISCKSSQSLETSTGTTYLNWYLQKPGQSPQLLIYRSSKRFSGVPDRFSGSGSGTDFTLKISRVEAEDVGVYYCLQLLEDPPTFGQGTKLEIK	6.17	0.00164
CNG-CD19-108 (antibody, V domains shown) VH: QVQLVQSGAEVKKPGASVKVSCKASGYDFTDYIVHWVRQAPGQGLEWMGYINPYNDGSKYTEKFQGRVTMTSDTSISTAYMELSRLRSDDTAVYYCARGTYYYGPQLFDYWGQGTTVTVSS VL: DIVMTQTPLSLSVTPGQPASISCKSSQSLETVTGTTYLNWYLQKPGQSPQLLIYRVSKRFSGVPDRFSGSGSGTDFTLKISRVEAEDVGVYYCLQLLEDPPTFGQGTKLEIK	2.25	0.00065
CNG-CD19-101 (antibody, V domains shown) VH: QVQLVQSGAEVKKPGASVKVSCKASGYDFTDYIMHWVRQAPGQGLEWMGYINPYNDGSKYTDKFQERVTMTSDTSISTAYMELSRLRSDDTAVYYCARGTYYYGPELFDYWGQGTTVTVSS VL: DIVMTQTPLSLSVTPGQPASISCKSSQSLETTTGTTYLNWYLQKPGQSPQLLIYRASKRFSGVPDRFSGSGSGTDFTLKISRVEAEDVGVYYCLQLLEDPYTFGQGTKLEIK	9.91	0.00233
CNG-CD19-708 (antibody, V domains shown) VH: QVQLQESGPGLVKPSQTLSLTCTVSGGSISTSTMGVGWIRQHPGKGLEWIGFIWWDDDKRYNPNLKSRVTMSVDTSKNQFSLKLSSVTAADTAVYYCARMELWSYYFDPWGQGTLVTVSS VL: EIVLTQSPATLSLSPGERATLSCSASSSVGYMHWYQQKPGQAPRLLIYDTSKLSSGIPARFSGSGSGTDFTLTISSLEPEDFAVYYCFQGSVYPFTFGQGTKLEIK	1.02	0.000223
CNG-CD19-7 (antibody, V domains shown) VH: QVQLQESGPGLVKPSQTLSLTCTVSGGSISTSGMGVGWIRQHPGKGLEWIGHIWWDDDKRYNPALKSRVTISVDTSKNQFSLKLSSVTAADTAVYYCARMELWSYYFDYWGQGTLVTVSS VL: EIVLTQSPATLSLSPGERATLSCSASSSVSYMHWYQQKPGQAPRLLIYDTSKLASGIPARFSGSGSGTDFTLTISSLEPEDFAVYYCFQGSVYPFTFGQGTKLEIK	8.43	0.000832
CNG-CD19-707 (antibody, V domains shown) VH: QVQLQESGPGLVKPSQTLSLTCTVSGGSISTSTMGVGWIRQHPGKGLEWIGFIWWDDDKRYNPNLKSRVTMSVDTSKNQFSLKLSSVTAADTAVYYCARMELWSYYFDPWGQGTLVTVSS VL: EIVLTQSPATLSLSPGERATLSCSASSSVGYMHWYQQKPGQAPRLLIYDTSKLASGIPARFSGSGSGTDFTLTISSLEPEDFAVYYCFQGSVYPFTFGQGTKLEIK	0.738	0.000207
CNG-CD19-709 (antibody, V domains shown) VH: QVQLQESGPGLVKPSQTLSLTCTVSGGSISTSTMGVGWIRQHPGKGLEWIGFIWWDDDKRYNPNLKSRVTMSVDTSKNQFSLKLSSVTAADTAVYYCARMELWSYYFDPWGQGTLVTVSS VL: EIVLTQSPATLSLSPGERATLSCSASSSVGYMHWYQQKPGQAPRLLIYDTSKLAFGIPARFSGSGSGTDFTLTISSLEPEDFAVYYCFQGSVYPFTFGQGTKLEIK	0.639	0.000168
CNG-CD19-704 (antibody, V domains shown) VH: QVQLQESGPGLVKPSQTLSLTCTVSGGSIASGMGVGWIRQHPGKGLEWIGHIWWDDDKRYNPALKSRVTISVDTSKNQFSLKLSSVTAADTAVYYCARMELWSYYFDGWGQGTLVTVSS VL: EIVLTQSPATLSLSPGERATLSCSASSSVSYMHWYQQKPGQAPRLLIYDTSKLASGIPARFSGSGSGTDFTLTISSLEPEDFAVYYCFQGSVYPFTFGQGTKLEIK	1.24	0.000194

The next lines start with the values.

Kd [nM]	koff [s⁻¹]	Binder
12.1	0.00218	CNG-CD19-102 (antibody, V domains shown) VH: QVQLVQSGAEVKKPGASVKVSCKASGYEFTDYIMHWVRQAPGQGLEWMGYINPYNDGSKYTEKFQPRVTMTSDTSISTAYMELSRLRSDDTAVYYCARGTYYYGPQLFDYWGQGTTVTVSS VL: DIVMTQTPLSLSVTPGQPASISCKSSQSLETSTGTTYLNWYLQKPGQSPQLLIYRVSKRFSGVPDRFSGSGSGTDFTLKISRVEAEDVGVYYCLQLLEDPYTFGQGTKLEIK
5.64	0.00129	CNG-CD19-107 (antibody, V domains shown) VH: QVQLVQSGAEVKKPGASVKVSCKASGYDFTDYIMHWVRQAPGQGLEWMGYINPYNDGSKYTEKFQHRVTMTSDTSISTAYMELSRLRSDDTAVYYCARGTYYYGPQLFDYWGQGTTVTVSS VL: DIVMTQTPLSLSVTPGQPASISCKSSQSLETSTGTTYLNWYLQKPGQSPQLLIYRVSRRFSGVPDRFSGSGSGTDFTLKISRVEAEDVGVYYCLQLLEDPYTFGQGTKLEIK
9.39	0.00191	CNG-CD19-1 (antibody, V domains shown) VH: QVQLVQSGAEVKKPGASVKVSCKASGYTFTDYIMHWVRQAPGQGLEWMGYINPYNDGSKYTEKFQGRVTMTSDTSISTAYMELSRLRSDDTAVYYCARGTYYYGPQLFDYWGQGTTVTVSS VL: DIVMTQTPLSLSVTPGQPASISCKSSQSLETSTGTTYLNWYLQKPGQSPQLLIYRVSKRFSGVPDRFSGSGSGTDFTLKISRVEAEDVGVYYCLQLLEDPYTFGQGTKLEIK
2.24	0.000679	CNG-CD19-105 (antibody, V domains shown) VH: QVQLVQSGAEVKKPGASVKVSCKASGYEFTDYIMHWVRQAPGQGLEWMGYINPYNDGSKYTEKFEGRVTMTSDTSISTAYMELSRLRSDDTAVYYCARGTYYYGPELFDYWGQGTTVTVSS VL: DIVMTQTPLSLSVTPGQPASISCKSSQRLETSTGTTYLNWYLQKPGQSPQLLIYRVSRRFSGVPDRFSGSGSGTDFTLKISRVEAEDVGVYYCLQLLEDPPTFGQGTKLEIK
4.03	0.00131	CNG-CD19-109 (antibody, V domains shown) VH: QVQLVQSGAEVKKPGASVKVSCKASGYDFTDYIVHWVRQAPGQGLEWMGYINPYNDGSLYTEKFQGRVTMTSDTSISTAYMELSRLRSDDTAVYYCARGTYYYGPQLFDYWGQGTTVTVSS VL: DIVMTQTPLSLSVTPGQPASISCKSSQQLETSTGTTYLNWYLQKPGQSPQLLIYRASKRFSGVPDRFSGSGSGTDFTLKISRVEAEDVGVYYCLQLLEDPYSFGQGTKLEIK
3.2	0.00123	CNG-CD19-106 (antibody, V domains shown) VH: QVQLVQSGAEVKKPGASVKVSCKASGYDFTDYIMHWVRQAPGQGLEWMGYINPYNDGSEYTEKFQGRVTMTSDTSISTAYMELSRLRSDDTAVYYCARGTYYYGPQLFDYWGQGTTVTVSS VL: DIVMTQTPLSLSVTPGQPASISCKSSQSLETATGTTYLNWYLQKPGQSPQLLIYRVSRRFSGVPDRFSGSGSGTDFTLKISRVEAEDVGVYYCLQLLEDPYTFGQGTKLEIK
2.54	0.000352	CNG-CD19-703 (antibody, V domains shown) VH: QVQLQESGPGLVKPSQTLSLTCTVSGGSISTSTMGVGWIRQHPGKGLEWIGFIWWDDDKRYNPNLKSRVTMSVDTSKNQFSLKLSSVTAADTAVYYCARMELWSYYFEYWGQGTLVTVSS VL: EIVLTQSPATLSLSPGERATLSCSASSSVSYMHWYQQKPGQAPRLLIYDTSKLASGIPARFSGSGSGTDFTLTISSLEPEDFAVYYCFQGSVYPFTFGQGTKLEIK
1.54	0.000328	CNG-CD19-710 (antibody, V domains shown) VH: QVQLQESGPGLVKPSQTLSLTCTVSGVSISTSSMGVGWIRQHPGKGLEWIGHAWWDDDKRYNPALKSRVTISVDTSKNQFSLKLSSVTAADTAVYYCARMELWSYYFDPWGQGTLVTVSS VL: EIVLTQSPATLSLSPGERATLSCSASSSFSYMHWYQQKPGQAPRLLIYDTSKLASGIPARFSGSGSGTDFTLTISSLEPEDFAVYYCFQGSVYPFTFGQGTKLEIK
0.668	0.000168	CNG-CD19-701 (antibody, V domains shown) VH: QVQLQESGPGLVKPSQTLSLTCTVSGGSISTSTMGVGWIRQHPGKGLEWIGFIWWDDDKRYNPNLKSRVTMSVDTSKNQFSLKLSSVTAADTAVYYCARMELWSYYFDYWGQGTLVTVSS VL: EIVLTQSPATLSLSPGERATLSCSASSSVGYMHWYQQKPGQAPRLLIYDTSKLASGIPARFSGSGSGTDFTLTISSLEPEDFAVYYCFQGSVYPFTFGQGTKLEIK
0.372	0.00012	CNG-CD19-706 (antibody, V domains shown) VH: QVQLQESGPGLVKPSQTLSLTCTVSGGSIASGMGVSWIRQHPGKGLEWIGHIWWDDDKRYNPALKSRVTISVDTSKNQFSLKLSSVTAADTAVYYCARMELWSYYFDPWGQGTLVTVSS VL: EIVLTQSPATLSLSPGERATLSCSASSSVGYMHWYQQKPGQAPRLLIYDTSKLASGIPARFSGSGSGTDFTLTISSLEPEDFAVYYCFQGSVYPFTFGQGTKLEIK
6.02	0.000837	CNG-CD19-705 (antibody, V domains shown) VH: QVQLQESGPGLVKPSQTLSLTCTVSGGSISTSGMGVGWIRQHPGKGLEWIGHIWWDDDKRYNPALKSRVTISVDTSKNQFSLKLSSVTAADTAVYYCARMELWSYYFDYWGQGTLVTVSS VL: EIVLTQSPATLSLSPGERATLSCSASSSVGYMHWYQQKPGQAPRLLIYDTSSLASGIPARFSGSGSGTDFTLTISSLEPEDFAVYYCFQGSVYPFTFGQGTKLEIK
